Test results: US20200010567A1 (NEURIMMUNE, published 2020)

T1: GA5: H-(GA)5HHHHHH-NH2
T1 peptide: H-GAGAGAGAGAHHHHHH-NH2

T2: GA6: H-(GA)6HHHHHH-NH2
T2 peptide: H-GAGAGAGAGAGAHHHHHH-NH2

T3: monomeric C9orf72 (GA)20 DPR protein peptide preparation (C-terminal amide)
T3 construct: also called monomeric (GA)20
T3 peptide: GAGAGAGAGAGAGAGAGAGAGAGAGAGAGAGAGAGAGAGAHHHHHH

T4: aggregated C9orf72 (GA)20 DPR protein peptide preparation (C-terminal amide)
T4 construct: also called aggregated (GA)20; amyloid-fibril like aggregated (GA)20
T4 peptide: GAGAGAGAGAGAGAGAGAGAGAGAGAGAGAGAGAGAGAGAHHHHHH

T5: GP20: H-(GP)20HHHHHH-NH2 (C-terminal amide)
T5 peptide: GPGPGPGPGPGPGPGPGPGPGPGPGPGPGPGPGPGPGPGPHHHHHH

T6: (GP)15: H-C(GP)15-OH
T6 construct: synthetic, not coupled to BSA; also called poly-GP DPR protein peptide
T6 peptide: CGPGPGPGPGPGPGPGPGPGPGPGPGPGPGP


Assays:
GA5: H-(GA)5HHHHHH-NH2 = target: T1, GA5: H-(GA)5HHHHHH-NH2; assay: indirect ELISA, coated His-tagged peptide
Summary of the method: (§1)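 His-tagged dipeptide-repeat peptides coated at 50 μg/ml in carbonate buffer pH 9.42; blocked with 2% BSA in PBS/0.1% Tween-20. Human antibodies titrated, 1 h at room temperature, detected with HRP anti-human IgG Fcγ by colorimetric read-out. EC₅₀ from non-linear regression.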

GA6: H-(GA)6HHHHHH-NH2 = target: T2, GA6: H-(GA)6HHHHHH-NH2; assay: indirect ELISA, coated His-tagged peptide; indirect ELISA, peptide coated directly on the plate
Description: In brief, dipeptide repeat proteins were synthesized and purified by Schafer-N (Copenhagen, Denmark): GA₂₀: H-(GA)₂₀HHHHHH-NH₂; GA₁₀: H-(GA)₁₀HHHHHH-NH₂; GA₆: H-(GA)₆HHHHHH-NH₂; GA₅: H-(GA)₅HHHHHH-NH₂; GA₄: H-(GA)₄HHHHHH-NH₂; GA₃: H-(GA)₃HHHHHH-NH₂; GA₂: H-(GA)₂HHHHHH-NH₂; GP₂₀: H-(GP)₂₀HHHHHH-NH₂; GP₁₀: H-(GP)₁₀HHHHHH-NH₂; GP₆: H-(GP)₆HHHHHH-NH₂; GP₅: H-(GP)₅HHHHHH-NH₂; GP₄: H-(GP)₄HHHHHH-NH₂; GP₃: H-(GP)₃HHHHHH-NH₂; GP₂: H-(GP)₂HHHHHH-NH₂. GR₂₀: H-(GR)₂₀HHHHHH-NH₂; GR₁₀: H-(GR)₁₀HHHHHH-NH₂; GR₆: H-(GR)₆HHHHHH-NH₂; GR₅: H-(GR)₅HHHHHH-NH₂; GR₄: H-(GR)₄HHHHHH-NH₂; GR₃: H-(GR)₃HHHHHH-NH₂; GR₂: H-(GR)₂HHHHHH-NH₂; PA₂₀: H-(PA)₂₀HHHHHH-NH₂; PA₁₀: H-(PA)₁₀HHHHHH-NH₂; PA₆: H-(PA)₆HHHHHH-NH₂; PA₅: H-(PA)₅HHHHHH-NH₂; PA₄: H-(PA)₄HHHHHH-NH₂; PA₃: H-(PA)₃HHHHHH-NH₂; PA₂: H-(PA)₂HHHHHH-NH₂; PR₂₀: H-(PR)₂₀HHHHHH-NH₂; PR₁₀: H-(PR)₁₀HHHHHH-NH₂; PR₆: H-(PR)₆HHHHHH-NH₂; PR₅: H-(PR)₅HHHHHH-NH₂; PR₄: H-(PR)₄HHHHHH-NH₂; PR₃: H-(PR)₃HHHHHH-NH₂; PR₂: H-(PR)₂HHHHHH-NH₂. 96-well microplates (Corning Incorporated, Corning, USA) were coated with dipeptide repeat protein peptides at a concentration of 50 μg/ml in coating buffer (15 mM Na₂CO₃, 35 mM NaHCO₃, pH 9.42). Non-specific binding sites were blocked for 1 h at room temperature with PBS/0.1% Tween®-20 containing 2% BSA (Sigma-Aldrich, Buchs, Switzerland). Primary antibodies were diluted to the indicated concentrations and incubated 1 h at room temperature, followed by incubation with a donkey anti-human IgG Fcγ-specific antibody conjugated with HRP (Jackson ImmunoResearch Laboratories, Inc., West Grove, USA). Binding was determined by measurement of HRP activity in a standard colorimetric assay. EC₅₀ values were estimated by non-linear regression using GraphPad Prism software (San Diego, USA).

[1] = target: T3, monomeric C9orf72 (GA)20 DPR protein …; assay: sandwich ELISA, preparation captured by anti-His antibody
Method: (§2) 96-well microplates (Corning Incorporated, Corning, USA) were coated with monoclonal mouse anti-His tag antibody (Takara Bio Europe/Clontech, Saint-Germain-en-Laye, France) at a concentration of 10 μg/ml in coating buffer (15 mM Na₂CO₃, 35 mM NaHCO₃, pH 9.42) overnight at 4° C. Non-specific binding sites were blocked for 1 h at room temperature with PBS/0.1% Tween®-20 containing 2% BSA (Sigma-Aldrich, Buchs, Switzerland). After a washing step, his-tagged (GA)₂₀ DPR protein peptide preparations at equal concentration of 5 μM in PBS (pH 7.4) were added for target-trapping by the anti-His tag antibody for 1 h at room temperature. […] Antibody binding to DPR protein peptides was detected by a donkey anti-human IgG Fcγ-specific antibody conjugated with HRP at 1:5000 dilution (Jackson ImmunoResearch Laboratories, Inc., West Grove, USA) for 1 h at RT. Binding was determined by measurement of HRP activity in a standard colorimetric assay. EC₅₀ values were estimated by non-linear regression using GraphPad Prism software (San Diego, USA).

[2] = target: T4, aggregated C9orf72 (GA)20 DPR protein …; assay: as above
Method: as §2

GP20: H-(GP)20HHHHHH-NH2 = target: T5, GP20: H-(GP)20HHHHHH-NH2; assay: indirect ELISA, coated His-tagged peptide
Summary of the method: as §1

(GP)15: H-C(GP)15-OH = target: T6, (GP)15: H-C(GP)15-OH; assay: indirect ELISA, coated uncoupled peptide

Row | Binder | EC50 (GA5: H-(GA)5HHHHHH-NH2) [nM] | EC50 (GA6: H-(GA)6HHHHHH-NH2) [nM] | EC50 [1] [nM] | EC50 [2] [nM] | EC50 (GP20: H-(GP)20HHHHHH-NH2) [nM] | EC50 ((GP)15: H-C(GP)15-OH) [nM]
1 | NI-308.15O7 (antibody, V domains shown) VH: QVQLVESGGGVVQPGRSLRLSCAASGFTFSNHAMHWVRQAPGKGLEWVAVISYDGENTYYADSIEGRFTISRDNFKNTLFLQMYSLTADDTAMYFCARGGRRGHFTSYYLDYWGQGTLVTVSS VL: CDIQMTQSPSSLSASVGDRVTITCRASQNIDKYLNWYQQIPGKAPKLLIYAASSLHSGVPSRFSGSGSGTDFSLTISSLQPEDFAIYYCQQSYSSFRTFGQGTKLEIK | > 150 | 7.9 | 6.3 | 8.1 | – | –
2 | NI-308.28G1 (antibody, V domains shown, Recombinant complete human IgG1, kappa) VH: QVQLQESGPRLVKPSETLSLTCTVAGGSVNSYYWTWIQQSPGKGLEWLGRIYIAGRTNYNPSLTSRIALSVDTSRNQLSLKLTSVTAADTAIYYCARWGAESGDYYYGVDVWGPGTLVTVSS VL: EIVMTQSPLSLPVTPGEPASISCKSSEGLLHSNGYTYLDWYLQKPGQAPQLLIFLASNRAAGVPDRFSGSGSGTDFTLKISRVEAEDVGVYYCMQAIQSPWTFGPGTKVEIK | > 200 | 6.3 | – | – | – | –
3 | NI-308.5G2 (antibody, V domains shown, Recombinant complete human IgG1, kappa) VH: EVQLVQSGADLRNPGASVTVSCTASGYHFADNAINWLRQAPGQRLEWMGWINIYSGNTKYSQNFQGRVTFTRNTSASTAFMHLRSLRSEDTAVYFCARDPDSSGYYLPYFDYWGQGTLVTVSS VL: DIQLTQSPDSLTLSLGERATINCKSSQSVFYNSNNKNYLAWYQQKPGQPPKLLMYWASTRESGVTDRFSGSGSGTDFTLTITNLQAEDVAVYYCQQFYSSPLTFGGGTKVEIK | – | – | – | – | 0.47 | 0.88
4 | NI-308.46E9 (antibody, V domains shown, Recombinant complete human IgG1, kappa) VH: QVQLQESGPGLVKPSETLSLTCTVSGASISGSTYYWGWIRQPPGKGLEYIGRIYYSGSTYYNPSLKSRATISVDTSKNQLSLTLSSVTAADTAVYYCVRPFYAGSGNSPFDYWGQGTLVTVSS VL: CEIVLTQSPATVSVSPGERATLSCRASQSVSTNLAWYQQKPGQPPRLLIYGASTRATGIPARFSGSGSGAEFTLTISSLQSEDFVVYYCQQYNNWPPAFGGGTKVEIK | – | – | – | – | 15.5 | 13.9
5 | NI-308.18F7 (antibody, V domains shown, Recombinant complete human IgG1, kappa) VH: QVQLQESGPGLVKPSETLSVTCTVSGGSINDYYWNWIRQPAGKGLEWIGRIYASGTINYNPSLQSRVTMSIDTSKNQFSLDLISVSAADTAVYYCARWGQVVGDYYYGMDVWGQGTTVTVSS VL: EIVLTQSPLSLSVTPGEPASISCKSSQSLQHTNGYNYLDWYLLKPGQSPQLLIFLTSNRASGVPDRFSGSGSGTNFTLKISRVEAEDVGVYYCMEGIQLWTFGQGTKLEIK | – | – | 0.64 | 2.9 | – | –
